From paper doi:10.1101/2025.05.16.654284 (bioRxiv, 2025)
One block for each binder: values may come before it.

Molecular target: T1, YbbP (E. coli, UniProt P77504 1-804)
T1 sequence: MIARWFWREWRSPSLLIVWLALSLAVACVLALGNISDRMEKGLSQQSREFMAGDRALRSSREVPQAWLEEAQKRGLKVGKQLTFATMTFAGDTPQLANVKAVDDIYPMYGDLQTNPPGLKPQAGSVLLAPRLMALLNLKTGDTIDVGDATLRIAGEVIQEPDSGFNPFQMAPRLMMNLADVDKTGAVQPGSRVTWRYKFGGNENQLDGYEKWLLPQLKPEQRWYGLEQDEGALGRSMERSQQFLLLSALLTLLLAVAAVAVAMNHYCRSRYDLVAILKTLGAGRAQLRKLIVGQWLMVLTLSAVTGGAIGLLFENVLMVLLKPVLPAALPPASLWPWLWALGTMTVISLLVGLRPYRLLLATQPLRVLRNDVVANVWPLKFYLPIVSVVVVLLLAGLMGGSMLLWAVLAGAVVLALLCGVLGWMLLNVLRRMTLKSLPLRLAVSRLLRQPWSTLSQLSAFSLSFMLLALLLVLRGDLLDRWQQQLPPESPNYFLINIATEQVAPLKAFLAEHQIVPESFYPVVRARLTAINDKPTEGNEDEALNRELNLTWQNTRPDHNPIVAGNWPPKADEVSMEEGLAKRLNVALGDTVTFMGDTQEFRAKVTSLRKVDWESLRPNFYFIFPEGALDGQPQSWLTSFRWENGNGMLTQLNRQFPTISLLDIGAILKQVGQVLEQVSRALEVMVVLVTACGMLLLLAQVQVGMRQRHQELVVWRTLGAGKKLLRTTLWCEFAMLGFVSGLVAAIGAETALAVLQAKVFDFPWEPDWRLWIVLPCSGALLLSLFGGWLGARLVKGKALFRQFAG
Assay: cryo-EM structure

stoichiometry N: 2
B1: YbbA (natural protein, E. coli)
chain: MPAENIVEVHHLKKSVGQGEHELSILTGVELVVKRGETIALVGESGSGKSTLLAILAGLDDGSSGEVSLVGQPLHNMDEEARAKLRAKHVGFVFQSFMLIPTLNALENVELPALLRGESSAESRNGAKALLEQLGLGKRLDHLPAQLSGGEQQRVALARAFNGRPDVLFADEPTGNLDRQTGDKIADLLFSLNREHGTTLIMVTHDLQLAARCDRCLRLVNGQLQEEA

stoichiometry N: 1
B2: TesA Ser36Ala (enzyme, E. coli, UniProt P0ADA1 27-208, looked up)
chain: ADTLLILGDALSAGYRMSASAAWPALLNDKWQSKTSVVNASISGDTSQQGLARLPALLKQHQPRWVLVELGGNDGLRGFQPQQTEQTLRQILQDVKAANAEPLLMQIRLPANYGRRYNEAFSAIYPKLAKEFDVPLLPFFMEEVYLKPQWMQDDGIHPNRDAQPFIADWMAKQLQPLVNHDS
